Article PMC5855017, “Label-Free Aptasensor for Lysozyme Detection Using Electrochemical Impedance Spectroscopy”

Target: Lysozyme (UniProt P00698 19-147)
Assay: electrochemical impedance spectroscopy (label-free aptasensor); PEG-blocked electrode; 0.25-5 uM lysozyme; LOD 1.67 uM, slope 0.090 uM-1 (not Kd); Room temperature incubation; buffers listed: PBS (187 mM NaCl, 2.7 mM KCl, 8.1 mM Na2HPO4, 1.76 mM KH2PO4, pH 7.0) and BB (1 mM MgCl2, 2.7 mM KCl, 140 mM NaCl)
Settings: protein: commercial

Lysozyme, sequence (P00698 19-147): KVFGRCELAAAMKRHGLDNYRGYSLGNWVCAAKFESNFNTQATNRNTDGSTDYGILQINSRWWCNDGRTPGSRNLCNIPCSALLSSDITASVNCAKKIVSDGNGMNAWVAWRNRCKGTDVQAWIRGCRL

B1: AptLys (lysozyme aptamer) (ssDNA)
DNA: ATCTACGAATTCATCAGGGCTAAAGAGTGCAGAGTTACTTAG
modifications: 5' aminolink C6, immobilized via amide bond on graphite-epoxy electrode
Does B1 bind?
Result: binds
